# B1: MKJP2 인간 단일클론항체 (antibody, human IgG1, lambda, V domains shown)
# VH: EVQLLESGGGLAQPGGSLRLSCAASGFTFSGYAMSWVRQAPGKGLEWVSAISSDGGSTYYADSVKGRFTISRDNSKNTLYLQMNSLRAEDTAVYYCARDPWFSRWTAFDYWGQGTLVTVSS
# VL: QSVLTQPPSASGTPGQRVTISCSGSSSNIGNNAVNWYQQLPGTAPKLLIYSNSKRPSGVPDRFSGSKSGTSASLAISGLRSEDEADYYCGTWDYSLSGYVFGGGTKLTVLG
# notes: Human anti-IGF-1R antibody without IL2, used as the control in the ELISA; also called 1229 클론
# Target: IGF-1R 단백질 (Sino biological Inc. 10164H08H) (UniProt P08069 31-932)
# Test: ELISA, coated IGF-1R (50 ng/well), anti-human Fc-HRP
# IGF-1R 단백질 (Sino biological Inc. 10164H08H), sequence (P08069 31-932 limits assumed): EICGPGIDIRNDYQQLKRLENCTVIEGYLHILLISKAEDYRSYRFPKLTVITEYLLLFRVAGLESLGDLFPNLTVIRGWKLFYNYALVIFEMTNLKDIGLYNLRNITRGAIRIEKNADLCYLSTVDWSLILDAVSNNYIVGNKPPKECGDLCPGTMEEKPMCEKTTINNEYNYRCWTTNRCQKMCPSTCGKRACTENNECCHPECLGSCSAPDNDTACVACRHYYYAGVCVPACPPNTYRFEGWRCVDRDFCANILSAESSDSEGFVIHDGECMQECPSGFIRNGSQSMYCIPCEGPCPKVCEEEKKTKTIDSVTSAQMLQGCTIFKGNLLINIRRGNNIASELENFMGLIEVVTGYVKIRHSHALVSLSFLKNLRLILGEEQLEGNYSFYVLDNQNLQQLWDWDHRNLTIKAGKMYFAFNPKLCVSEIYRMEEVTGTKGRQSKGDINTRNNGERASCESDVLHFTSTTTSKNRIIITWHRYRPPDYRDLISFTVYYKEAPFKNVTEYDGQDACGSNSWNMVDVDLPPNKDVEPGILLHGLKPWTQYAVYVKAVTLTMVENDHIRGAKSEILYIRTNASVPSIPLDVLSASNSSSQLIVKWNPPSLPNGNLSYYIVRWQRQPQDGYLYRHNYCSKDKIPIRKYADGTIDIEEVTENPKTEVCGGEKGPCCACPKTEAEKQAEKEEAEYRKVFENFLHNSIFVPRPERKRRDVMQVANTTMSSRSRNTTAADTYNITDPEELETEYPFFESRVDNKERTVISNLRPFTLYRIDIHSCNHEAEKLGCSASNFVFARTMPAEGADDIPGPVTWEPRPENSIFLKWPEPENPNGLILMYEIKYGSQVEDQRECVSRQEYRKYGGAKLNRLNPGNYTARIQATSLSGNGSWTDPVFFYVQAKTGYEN
binder,measurement,value
B1,EC50,0.148 nM

# Source: patent publication KR20140148294A (dated 2014)
